Molecular target: T1, GST-CypA (UniProt P62937 1-165)
T1 construct: cyclophilin A fused to GST; source: E. coli BL21, purified on glutathione-agarose
Assay: pull-down; GST proteins (GST, GST-CypA, GST-FKBP12) on glutathione sepharose (10 µl) added to HEK 293 T lysate (50 µl diluted to 500 µL with lysis buffer) of cells transfected with an empty (pCi) or Tat vector; 1 h at 4 °C; three washes with lysis buffer; western blots
Details: one partner purified

T1 sequence (P62937 whole entry, the tested form may be a part): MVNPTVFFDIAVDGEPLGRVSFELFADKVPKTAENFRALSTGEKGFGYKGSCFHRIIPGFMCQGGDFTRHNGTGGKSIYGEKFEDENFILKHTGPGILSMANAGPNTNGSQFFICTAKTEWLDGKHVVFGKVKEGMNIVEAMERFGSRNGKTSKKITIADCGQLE

B1: DHHC-20 (enzyme, human (endogenous in HEK 293 T), UniProt Q5W0Z9 1-365, looked up)
chain: MAPWTLWRCCQRVVGWVPVLFITFVVVWSYYAYVVELCVFTIFGNEENGKTVVYLVAFHLFFVMFVWSYWMTIFTSPASPSKEFYLSNSEKERYEKEFSQERQQEILRRAARALPIYTTSASKTIRYCEKCQLIKPDRAHHCSACDSCILKMDHHCPWVNNCVGFSNYKFFLLFLLYSLLYCLFVAATVLEYFIKFWTNELTDTRAKFHVLFLFFVSAMFFISVLSLFSYHCWLVGKNRTTIESFRAPTFSYGPDGNGFSLGCSKNWRQVFGDEKKYWLLPIFSSLGDGCSFPTRLVGMDPEQASVTNQNEYARSSGSNQPFPIKPLSESKNRLLDSESQWLENGAEEGIVKSGTNNHVTVAIEN
notes: S-acyl transferase DHHC-20, detected with anti-DHHC-20 (Sigma SAB 4501054); also called S-acyl transferase DHHC-20; source: endogenous, HEK 293 T lysate
B1 was tested, and the “fold more pulled down from extracts of Tat-transfected cells against empty-vector cells” value was roughly 4 fold.

— article PMC5993824 (Nature Communications, 2018)
